From the supplement of paper PMC9732359
± gives the uncertainty stated by the source.

Experiment: protein stability index of a GFP-peptide fusion (yeast GPS) (PSI 1-4); higher = more stable; sorted into four equal gates, so the index is relative within each strain
Outline: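 The protein stability index of a peptide was calculated by multiplying its read frequency in each gate by that gate's number and adding the products. The peptides were tiled 17-residue stretches of yeast proteins, fused downstream of GFP on a Cherry-expressing plasmid and carried in yeast as a pooled library. Mid-log cultures in leucine-free medium were sorted into four equal gates by GFP/Cherry ratio, and each gate's plasmids were PCR-amplified and Illumina-sequenced.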

Sequence | protein stability index (doa10∆) | protein stability index (pdr5∆) | protein stability index (san1∆) | protein stability index (ubr1∆)
VTQQKRSLDENRLEIKY [SMC1] | 2.06 ± 0.064 | 2.15 ± 0.096 | 2.12 ± 0.16 | 2.08 ± 0.062
VTRGISVLKDSDDKTRQ [PRE1] | 3.16 ± 0.078 | 3.28 ± 0.066 | 3.18 ± 0.056 | 3.17 ± 0.059
VTSSFFYRGNYTDFENT [FAS1] | 2.05 ± 0.058 | 2.4 ± 0.049 | 2.43 ± 0.079 | 2.57 ± 0.056
VVEDKPLLSKKERLVRD [SMB1] | 1.14 ± 0.063 | 1.2 ± 0.043 | 1.21 ± 0.13 | 1.49 ± 0.056
VVGLGERVSPTDIEEGM [RPT1] | – | 3.33 ± 0.24 | – | –
VVGRTTRSNPPFKRKML [REC8] | 2.59 ± 0.06 | 2.77 ± 0.059 | 2.71 ± 0.055 | 2.75 ± 0.054
VWYGLSDGEDGHIPWHI [SSN2] | 3.05 ± 0.08 | 3.25 ± 0.091 | 3.07 ± 0.053 | 3.1 ± 0.062
VYNNSKDEYLAQLDGRI [NSL1] | 3.33 ± 0.073 | 3.26 ± 0.049 | 3.17 ± 0.049 | 3.36 ± 0.045
WAADSVSSRVRGYTCQF [FAS1] | 2.56 ± 0.29 | 2.62 ± 0.15 | 2.71 ± 0.11 | 2.69 ± 0.13
WADNYERKEQEEKEKEQ [BRN1] | 3.47 ± 0.21 | – | 3.49 ± 0.11 | 3.46 ± 0.14
WAGKRLWDQDIAIAGTG [COR1] | 3.25 ± 0.1 | 3.11 ± 0.12 | 2.56 ± 0.1 | 2.66 ± 0.072
WGAETDELSMIMEHFSQ [RPS12] | 2.93 ± 0.11 | 3.12 ± 0.17 | 3.44 ± 0.071 | 3.29 ± 0.12
WGTLQSVSPQMNAILTD [SMD1] | 2.83 ± 0.11 | 2.66 ± 0.1 | 2.75 ± 0.057 | 2.91 ± 0.074
WLETYSENRDKFLQEFI [IRR1] | 2.97 ± 0.096 | 1.93 ± 0.11 | 2.58 ± 0.096 | 1.92 ± 0.1
WLNFLRGTIPLLERYIG [PRP8] | 1.41 ± 0.068 | 1.23 ± 0.046 | 1.18 ± 0.077 | 1.1 ± 0.065
WLVVPTIYNLQHHVTDA [YML031W/NDC1] | 1.38 ± 0.03 | 1.62 ± 0.033 | 1.46 ± 0.05 | 1.37 ± 0.027
WNLEKWREIIEKVRDYE [IRR1] | 3.06 ± 0.12 | 3.41 ± 0.15 | 3.3 ± 0.054 | 3.19 ± 0.066
WQELARSTDEFNGAQLK [RPT5] | 2.52 ± 0.16 | 2.73 ± 0.2 | 2.65 ± 0.24 | 2.29 ± 0.17
WRKSDRELTKNILWRIA [SIR4] | 2.91 ± 0.12 | 1.82 ± 0.088 | 2.09 ± 0.25 | 2.54 ± 0.089
WRLLFIDKFIMVVQKYK [GRR1] | 2.07 ± 0.054 | 1.79 ± 0.052 | 1.66 ± 0.083 | 2.38 ± 0.043
WRVREASTSALLQLIQS [ECM29] | 1.16 ± 0.13 | 1.41 ± 0.12 | 1.04 ± 0.22 | –
WTDPNLKSSLADVLSIL [RPN1] | 2.94 ± 0.15 | 2.98 ± 0.14 | 2.94 ± 0.096 | 2.65 ± 0.068
WTIPHKKWNDLKNKNFK [SIR2] | 3.22 ± 0.14 | 3.38 ± 0.13 | 3.29 ± 0.11 | 3.23 ± 0.073
WTVLFRKHHKKGITEEV [RPL24A] | 3.08 ± 0.12 | 2.1 ± 0.13 | 1.82 ± 0.15 | 2.64 ± 0.079
WVAPQESSHEQEEFVQF [ECM29] | 3.26 ± 0.15 | 3.42 ± 0.13 | – | –
WVFSYLRWFELKPKLYY [SIR3] | 1.93 ± 0.081 | 1.96 ± 0.071 | 2.5 ± 0.19 | 2.49 ± 0.054

Sequence | protein stability index (doa10∆) | protein stability index (pdr5∆) | protein stability index (san1∆) | protein stability index (ubr1∆)
YARADTHFLLNIYDQLR [RRP6] | 2.54 ± 0.045 | 2.34 ± 0.042 | 2.44 ± 0.05 | 2.58 ± 0.027
YDKKKRVVVPQALRVLR [RPL16B] | 1.82 ± 0.043 | 2.09 ± 0.059 | 2.17 ± 0.084 | 1.82 ± 0.059
YDTQLKVSPEELPLVIT [ARP7] | 2.6 ± 0.047 | 2.77 ± 0.062 | 2.59 ± 0.041 | 2.62 ± 0.042
YEADQRKLFPNWIKPSD [PRP8] | 2.99 ± 0.092 | 2.86 ± 0.085 | 2.67 ± 0.11 | 2.96 ± 0.049
YFKLSITSFDQDVDDAH [POP8] | 1.78 ± 0.05 | 1.95 ± 0.075 | 1.78 ± 0.095 | 2.25 ± 0.055
YFLHLSVFNAELLKLLN [YCS4] | 1.26 ± 0.053 | 1.61 ± 0.058 | 1.8 ± 0.099 | 1.51 ± 0.053
YFLKVTFLKYFGWLLSD [IRR1] | 1.75 ± 0.074 | 1.59 ± 0.054 | 1.88 ± 0.09 | 1.8 ± 0.062
YFSNKTSTGIIRCHRED [POP5] | 2.98 ± 0.17 | 2.68 ± 0.1 | 2.62 ± 0.081 | 2.06 ± 0.059
YFWHKIWRKVPGDVLDK [SNU114] | 1.15 ± 0.095 | 1.08 ± 0.064 | 1.51 ± 0.23 | 1.22 ± 0.094
YGAYNTQIANAGASPMV [PRE4] | 2.16 ± 0.1 | 2.3 ± 0.096 | 1.92 ± 0.097 | 1.61 ± 0.063
YGGSRCANCVKERIVRA [RPL34B] | 3.36 ± 0.21 | 3.38 ± 0.089 | 2.87 ± 0.076 | 3.15 ± 0.14
YGHVFLGITGLATDVTT [PUP3] | 1.93 ± 0.13 | 2.24 ± 0.098 | 2.25 ± 0.15 | 2.29 ± 0.1
YGIPLEFYNEMHRPVHF [PRP8] | 1.85 ± 0.074 | 2.04 ± 0.1 | 1.98 ± 0.14 | 2.64 ± 0.15
YGKPTNQGVNELKYQRS [RPL15A] | 2.9 ± 0.16 | 3.23 ± 0.17 | 2.59 ± 0.14 | 3.03 ± 0.087
YGNDEEVLFYEDNYNPK [RPN4] | 3.11 ± 0.094 | 3.2 ± 0.12 | 3.12 ± 0.097 | 2.96 ± 0.074
YGRQELADDLITKMLAS [RPN2] | – | 2.92 ± 0.29 | – | 3 ± 0.079
YHGISKNDNIKKSVNKL [POP6] | 2.7 ± 0.064 | 2.75 ± 0.049 | 2.77 ± 0.05 | 2.85 ± 0.046
YHQLLSDIESLEALMDI [SRB8] | 2.9 ± 0.13 | 2.84 ± 0.19 | – | 2.25 ± 0.2
YIEASGREGIWSKTIKA [RPC34] | 1.78 ± 0.1 | 2.07 ± 0.16 | 2.3 ± 0.17 | 2.42 ± 0.1
YIESKFCPGEIVGKSNV [YMR129W/POM152] | 2.86 ± 0.1 | 2.92 ± 0.1 | – | 2.65 ± 0.07
YIKSATLYSVKSKEDMK [SNU114] | 3.22 ± 0.17 | 3.31 ± 0.13 | 3.18 ± 0.082 | 3.11 ± 0.087
YINGKATALANLRKSRG [RPO31] | 3 ± 0.067 | 3.13 ± 0.075 | 2.81 ± 0.064 | 3 ± 0.067
YINSDSVNPAMLPGSSN [RPO31] | 2.6 ± 0.1 | 2.74 ± 0.099 | 2.73 ± 0.15 | 2.83 ± 0.074
YISNLLYGVTICYNKKT [REC8] | 1.22 ± 0.036 | 1.27 ± 0.048 | 1.3 ± 0.077 | 1.21 ± 0.03
YIYSHVNKVPQNVAGDK [SWP82] | 2.79 ± 0.17 | 2.93 ± 0.079 | 2.96 ± 0.08 | 2.97 ± 0.071
YKIPKVMKDIYKVENVT [ESC2] | – | 3.52 ± 0.16 | – | –
